# Patent US20250277050A1 (published 2025)
# T1: human CD30 expressed on the cell surface (human, UniProt P28908 19-595)
# T1 chain: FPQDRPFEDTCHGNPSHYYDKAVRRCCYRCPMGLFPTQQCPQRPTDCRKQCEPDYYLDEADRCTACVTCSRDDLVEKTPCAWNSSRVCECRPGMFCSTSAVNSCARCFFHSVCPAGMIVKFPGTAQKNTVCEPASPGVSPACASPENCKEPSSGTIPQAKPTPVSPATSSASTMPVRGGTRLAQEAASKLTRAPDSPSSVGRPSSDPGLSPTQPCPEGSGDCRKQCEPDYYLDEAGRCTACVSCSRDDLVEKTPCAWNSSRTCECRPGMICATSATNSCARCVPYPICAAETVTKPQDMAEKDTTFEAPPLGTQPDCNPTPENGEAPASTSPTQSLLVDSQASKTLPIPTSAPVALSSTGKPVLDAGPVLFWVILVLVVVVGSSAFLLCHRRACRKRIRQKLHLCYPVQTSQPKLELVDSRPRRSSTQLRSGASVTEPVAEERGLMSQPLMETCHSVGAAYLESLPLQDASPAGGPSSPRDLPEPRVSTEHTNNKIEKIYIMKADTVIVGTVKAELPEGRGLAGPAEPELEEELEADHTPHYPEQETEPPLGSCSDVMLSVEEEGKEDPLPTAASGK
# Assays:
# [1] = biological target: T1, human CD30 expressed on the cell surface; experiment: SPR; CD30 immobilized on CM5 chip, antibody as analyte
# [2] = biological target: T1, human CD30 expressed on the cell surface; experiment: as above
# [3] = biological target: T1, human CD30 expressed on the cell surface; experiment: SPR; antibody immobilized on Protein G chip, CD30 as analyte
binder,measurement,setting,value
"12B1 (antibody, V domains shown) VH: EVKLEESGTELVKPGASVKLSCKASGYTFTSYWMHWVKQRPGQGLEWIGNINPTNGGTNYNEKFKSKATLTVDKSSRTAYMQLSSLTSGDSAVYYCARRDFITTSGFAYWGQGTLVTVSA VL: DIVMTQTTASLSTSVGETVTITCRASGNLHSYLTWYQQKQGKSPQLLVYNAKTLADGVPSRFSGSGSGTQYSLKIDSLQPEDFGSYYCQHFWTTPFTFGSGTKLEIK",Ka,[1],5.02e+09 M⁻¹
same,Kd,[2],199 pM
"15B8 (antibody, V domains shown) VH: QVQLEQSGTELVKPGASVKLSCKASGYTFTSYWMHWVKQRPGQGLEWIGNINPSNGGTNYNEKFKSKATLTVDKSSSTAYMQLSSLTSEDSAIYYCARRNNYYASSPFAYWGQGTLVSVSA VL: DIVMTQTPASLSASVGETVTITCRASGNIHNYLAWYQQKQGKSPQLLVYNAKTLADGVPSRFSGSGSGTQYSLKINSLQPEDFGSYYCQHFWSTPFTFGSGTKLEIK",Ka,[1],1.02e+09 M⁻¹
same,Kd,[2],978 pM
"8D10 (antibody, V domains shown) VH: QVQLQESGTELVKPGASVKLSCKASGYTFTSYWMHWMKQRPGQGLEWIGNINPSNGGTNYNEKFKNKATLTVDKSSSTAYMQLSSLTSEDSAVYYCARRDYYYGSSYGFDVWGTGTTVTVSS VL: DIVMTQSPASQSASLGESVTITCLASQTIGTWLAWYQQKPGKSPQFLIYAATSLADGVPSRFSGSGSGTKFSFKISSLQAEDFVSYYCQQLYSTPFTFGGGTKLEIK",Kd,[3],1140 pM
same,Ka,[1],1.69e+10 M⁻¹
same,Kd,[2],59.2 pM
"13H1 (antibody, V domains shown) VH: QVQLQQSGTELVKPGASVKLSCKASGHTFTSYWMHWVKQRPGQGLEWIGNINPSNGGTNYNEKFKSKATLTVDKSSSTAYMQLSSLTSEDSAVYYCARRGYYGSSSYWSFDVWGTGTTVTVSS VL: DIVMTQTPKSMSMSVGERVTLSCKASENVGTYVSWYQQKPEQSPKVLIYGASNRFTGVPDRFTGSGSATDFTLTISSVQTEDLADYHCGQSYSYPLTFGAGTKLELK",Ka,[1],6.7e+09 M⁻¹
same,Kd,[2],149 pM
"10C2 (antibody, V domains shown) VH: QVQLEQSGPVLVKPGASVKMSCKASGYTFTDYYMNWVKQSHGKSLEWIGVINPYNGGTSYNQKFKGKATLTVDKSSSTACMELNCLTSEDSAVYYCTLGAYWGQGTSVTVSS VL: not shown",Kd,[3],1760 pM
same,Ka,[1],1.65e+09 M⁻¹
same,Kd,[2],607 pM
